Reference: US20130115256A1 (published 2013)
Where no end group is shown, it is not given here.

Legend:
Assay in all cases: cell-based or functional assay
[1] = molecular target: JNK (c-Jun N-terminal Kinase)
[2] = molecular target: T1, MKK4 (Mitogen-Activated Protein Kinase Kinase 4) (UniProt P45985 1-399)
T1 sequence: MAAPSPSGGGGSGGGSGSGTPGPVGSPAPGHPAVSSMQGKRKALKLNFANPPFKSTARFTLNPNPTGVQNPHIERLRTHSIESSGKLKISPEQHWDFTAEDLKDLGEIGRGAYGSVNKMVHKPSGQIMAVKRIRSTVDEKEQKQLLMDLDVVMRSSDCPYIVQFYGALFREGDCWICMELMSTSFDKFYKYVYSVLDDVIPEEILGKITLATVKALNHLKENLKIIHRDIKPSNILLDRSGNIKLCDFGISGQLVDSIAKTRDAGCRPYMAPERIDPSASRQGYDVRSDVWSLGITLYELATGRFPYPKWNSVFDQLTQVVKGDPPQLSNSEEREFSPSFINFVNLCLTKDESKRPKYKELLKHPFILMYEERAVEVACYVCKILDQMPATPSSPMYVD

[3] = molecular target: T2, MKK6 (Mitogen-Activated Protein Kinase Kinase) (UniProt P52564 1-334)
T2 sequence: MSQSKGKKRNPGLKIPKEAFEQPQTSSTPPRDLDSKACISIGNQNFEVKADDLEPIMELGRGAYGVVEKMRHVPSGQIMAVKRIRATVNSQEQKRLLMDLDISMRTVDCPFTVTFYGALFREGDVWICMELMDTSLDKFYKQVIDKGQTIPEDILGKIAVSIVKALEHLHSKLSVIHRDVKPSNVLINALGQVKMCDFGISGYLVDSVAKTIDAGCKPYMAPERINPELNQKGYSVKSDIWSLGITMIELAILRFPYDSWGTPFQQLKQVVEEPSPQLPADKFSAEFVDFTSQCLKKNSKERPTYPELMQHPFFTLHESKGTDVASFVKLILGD

[4] = molecular target: MEK1 (Meiosis-specific serine/threonine protein kinase) (UniProt Q02750 1-393)
[5] = molecular target: T3, PRAK (p38-Regulated/Activated Protein Kinase) (UniProt Q8IW41 1-473)
T3 sequence: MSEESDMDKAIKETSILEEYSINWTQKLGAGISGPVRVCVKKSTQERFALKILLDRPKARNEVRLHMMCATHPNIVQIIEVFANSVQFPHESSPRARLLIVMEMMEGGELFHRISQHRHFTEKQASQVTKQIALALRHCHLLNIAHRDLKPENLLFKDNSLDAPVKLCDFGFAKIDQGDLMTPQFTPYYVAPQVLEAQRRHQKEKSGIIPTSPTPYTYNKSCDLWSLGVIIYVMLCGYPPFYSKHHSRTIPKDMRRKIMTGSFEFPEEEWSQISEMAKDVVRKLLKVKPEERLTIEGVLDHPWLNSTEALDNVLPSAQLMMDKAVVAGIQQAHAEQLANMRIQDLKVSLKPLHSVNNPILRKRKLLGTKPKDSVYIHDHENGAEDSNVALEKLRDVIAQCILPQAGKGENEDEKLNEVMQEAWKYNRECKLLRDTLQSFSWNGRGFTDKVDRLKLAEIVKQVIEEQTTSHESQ

[6] = molecular target: p38 MAPK (p38 Mitogen-Activated Protein Kinase)

Binder: YARAAARQARAKALARQLGVAA (not fully specified (C-terminus)) [MMI-0100 (YARAAARQARAKALARQLGVAA; SEQ ID NO: 1)]
- Percent Activity (radiometric kinase assay, peptide at 100 µM) [1]: 92 % activity
- Percent Activity (radiometric kinase assay, peptide at 100 µM) [2]: 90 % activity
- Percent Activity (radiometric kinase assay, peptide at 100 µM) [3]: 50 % activity
- Percent Activity (radiometric kinase assay, peptide at 100 µM) [4]: 68 % activity
- Percent Activity (radiometric kinase assay, peptide at 100 µM) [5]: 100 % activity
- Percent Activity (radiometric kinase assay, peptide at 100 µM) [6]: 60 % activity
